# Reference: patent US12280095B2, “Tissue modifier and uses therefor” (Fibrosoft Pte Ltd, priority 2021, dated 2025)
# B1: ALTEPLASE: tissue plasminogen activator (tPA), collagenase-producing agent; comparator when administered on its own (protein, UniProt P00750 36-562, looked up)
# Tissue-type plasminogen …: SYQVICRDEKTQMIYQQHQSWLRPVLRSNRVEYCWCNSGRAQCHSVPVKSCSEPRCFNGGTCQQALYFSDFVCQCPEGFAGKCCEIDTRATCYEDQGISYRGTWSTAESGAECTNWNSSALAQKPYSGRRPDAIRLGLGNHNYCRNPDRDSKPWCYVFKAGKYSSEFCSTPACSEGNSDCYFGNGSAYRGTHSLTESGASCLPWNSMILIGKVYTAQNPSAQALGLGKHNYCRNPDGDAKPWCHVLKNRRLTWEYCDVPSCSTCGLRQYSQPQFRIKGGLFADIASHPWQAAIFAKHRRSPGERFLCGGILISSCWILSAAHCFQERFPPHHLTVILGRTYRVVPGEEEQKFEVEKYIVHKEFDDDTYDNDIALLQLKSDSSRCAQESSVVRTVCLPPADLQLPDWTECELSGYGKHEALSPFYSERLKEAHVRLYPSSRCTSQHLLNRTVTDNMLCAGDTRSGGPQANLHDACQGDSGGPLVCLNDGRMTLVGIISWGLGCGQKDVPGVYTKVTNYLDWIRDNMRP
# System: Dupuytren's disease
# Test: Treatment of Dupuytren's disease patients by intralesional injection of tPA in combination with hyaluronidase
# Assay type: in vivo, human
molecule,measurement,setting,value
B1,"mean time required to observe discernible reduction in volume of the fibromatosis, reduction of contracture and improvement in the range of motion","ALTEPLASE administered on its own, patients with Dupuytren's disease",4-6 weeks
same,"time required to obtain similar effects (volume reduction, flexion improvement)",ALTEPLASE alone,4-6 weeks
